Values joined by “and” are separate entries in the source; they are usually repeats but may differ in a detail not shown here. Equal values may be shown once. Read-outs that look alike come from different tables or passages of the source. Strand notation (5' to 3'): a small letter for the sugar, then the base; units joined by * are phosphorothioate-linked, units joined directly phosphodiester-linked; [ ] holds rarer units or linkages, { } end groups; capitals alone tell only the bases. r = 2'-OH (RNA); f = 2'-fluoro
What was measured:
[1] = tested on: clot formation in plasma; details: cited from earlier work
[2] = cited from earlier work
[3] = target: thrombin (Homo sapiens, UniProt P00734); details: cited from earlier work
[4] = patient with renal failure; cited from earlier work
[5] = tested on: clot formation in whole blood; assay: Antidote reversal TEG of 11F7T+R9D-14T anticoagulation; format: cell-based, human; details: blood anticoagulated 1 hour with 11F7T 0.5 μM+R9D-14T 5 μM; protamine 22 μM (4-fold molar excess); average
Procedure: For the antidote reversal TEGs, whole blood was anticoagulated with a combination of the FXa (0.5 μM) and prothrombin (5 μM) aptamers for 1 hour as described, antidote (10 μL) was added, and the assay was continued until a stable clot was formed. For complete antidote reversal at one hour a 4-fold molar excess of protamine (22 μM) was added, 50 μg of CDP was added, or a 2-fold molar excess of the R9D-14T oligonucleotide (10 μM) in combination with a 3-fold molar excess of the 11F7T antidote oligonucleotide (1.5 μM) was added.
Whole blood was anticoagulated with 11F7T+R9D-14T at a dose that prevents clot formation for greater than three hours, and various antidotes were subsequently added after one hour to assess anticoagulation reversal and resulting clot formation. Both protamine and the β-cyclodextrin containing polymer (CDP) were tested for their ability to function as a universal antidote by simultaneously reversing both aptamers in combination (Oney et al, Nat Med 15:1224-8 (2009)). […] Thus, although the 11F7T+R9D-14T aptamer combination is an extremely potent anticoagulant cocktail that can mimic UFH anticoagulation in an ex vivo oxygenator circuit, the aptamer combination can be rapidly reversed with either a universal antidote or a combination of oligonucleotide antidotes.

[6] = tested on: clot formation in whole blood; assay: Thromboelastography (TEG), whole blood stimulated with tissue factor; format: cell-based, human
Procedure: Blood was drawn from healthy, consented volunteers under a Duke University Institutional Review Board approved protocol and anticoagulated with 3.2% sodium citrate. Whole blood (320 μL) was mixed with anticoagulant (heparin or aptamers) (10 μL) and kaolin (Haemonetics, Niles, Ill.) (10 μL) or CAT PRP reagent (Diagnostica Stago, 0.33 ρM TF final) (10 μL) was added to stimulate clotting. CaCl2 (20 μL) was immediately added to overcome the citrate, the mixture was added to a plain disposable plastic TEG cup (Haemonetics), and the assay was run according to the manufacturer's instructions. Clot formation at 37° C. was measured with a Thromboelastograph Analyzer (Haemonetics, Niles, Ill.) until a stable clot was formed (i.e., a maximum amplitude was reached) or for three hours with the aptamer combinations. The time lag time, α-angle, and maximum amplitude were automatically calculated by the TEG® Analytical Software version 4.2.3 (Haemonetics).
Because kaolin stimulates blood via the intrinsic pathway, it is unlikely that 7S-1 (FVIIa aptamer) would impair clot formation with this type of stimulation; thus, this aptamer was tested in a modified TEG with TF stimulation. CAT platelet rich plasma (PRP) reagent (TF) was diluted to a final concentration of 0.33 ρM TF to stimulate clotting.

[7] = tested on: clot formation in whole blood; assay: TEG of whole blood, coagulation triggered by tissue factor (Example I); format: cell-based; details: TF; FVIIa aptamer 0.5, FIXa aptamer 1.0, FXa aptamer 1.0 micromolar
Procedure: TEG is a waveform generated from serial measurements of the torque transmitted from a small oscillating cup to the tip of a metal pin inserted into the cup by a 360 microliter sample of blood or plasma added to the cup.
A 360 microliter blood sample has been added to the cup. For 180 minutes after the sample is added, the cup oscillates alternatively clockwise and counterclockwise through an arc of 4° 45′ at a frequency of one oscillation cycle—i. e., one clockwise rotation and one counterclockwise rotation—every 10 seconds. The lower end of the pin is immersed by the sample; the upper end is suspended from a torsion wire. The TEG analyzer records a single measurement of rotation-induced torque after each clockwise rotation and after each counterclockwise rotation of the cup. “The torque of the rotating cup is transmitted to the immersed pin only after fibrin-platelet bonding has linked the cup and [the] pin together. The strength of these fibrin-platelet bonds affects the magnitude of the pin motion, such that strong clots move the pin directly in phase with the cup motion. Thus, the magnitude of the output is directly related to the strength of the formed clot . . . . [If] the clot retracts or lyses, these bonds are broken and the transfer of cup motion is diminished. The rotation movement of the pin is converted by a mechanical-electrical transducer to an electrical signal which can be monitored by a computer” (TEG 5000 User Manual, pp 3-4, 1999-2007)). The computer converts the series of electrical signals into the TEG tracing.

[8] = tested on: thrombin generation in normal human platelet poor plasma; assay: Calibrated automated thrombography (CAT); format: biochemical; details: TF 5 ρM
Procedure: Normal human platelet poor plasma (80 μL) was mixed with aptamer(s) (10 μL) in an Immunolon 2HB U Bottom Mictrotiter 96-well plate (Thermo Labsystems, Franklin, Mass.) and incubated at 37° C. for 5 min. PPP reagent (Diagnostica Stago, Parsippany, N.J.) (either 1 ρM or 5 ρM TF, 20 μL, Diagnostica Stago) was added, and the mixture was incubated at 37° C. for another 5 min. FluCa (Diagnostica Stago) (10 μL) was added to initiate the assay and thrombin generation was measured for 60 minutes at 37° C. with a Fluoroskan Ascent fluorometer (ThermoLabsystem, Helsinki, Finland) according to the manufacturer's instructions. The amount of thrombin generated was quantified by comparison to an assay with thrombin calibrator reagent (Diagnostica Stago) that has a known activity toward the fluorogenic substrate. The lag time, peak amount of thrombin generated, and endogenous thrombin potential (ETP) were automatically calculated by the Thrombinoscope software (Thrombinoscope BV, the Netherlands).
Thrombin is the final protease formed in the coagulation cascade, and the rate of thrombin generation and the total amount of thrombin generated is associated with blood clot formation and stability (Wolberg, Blood Rev 21:131-42 (2007)). To gain more information about the impact of aptamer anticoagulation on the kinetics of thrombin generation, the individual aptamers were analyzed with calibrated automated thrombography (CAT). The CAT assay measures real-time thrombin generation in plasma by monitoring cleavage of a thrombin-specific fluorogenic substrate in response to TF stimulation (Heruker et al, Pathophysiol Haemost Thromb 33: 4-15 (2003)). The parameters of thrombin generation analyzed include: the lag time (time until thrombin generation begins), the peak (the maximal amount of thrombin generated at a given time) and the endogenous thrombin potential (ETP, the total amount of thrombin generated). Similar to the aPTT and PT clotting assays, all of the individual aptamers dose-dependently impacted the various parameters of thrombin generation (FIG. 21 and Table 1). […] 9.3T minorly impacted all parameters of thrombin generation with the high TF reagent; however, because high concentrations of TF may bypass FIX activity by directly generating FXa, the manufacturer recommends low concentrations of TF for analyzing FIX deficient (i.e, Hemophilia B) plasma in the CAT.

[9] = tested on: clot formation in normal human platelet poor plasma; assay: Prothrombin time (PT) plasma clotting assay; format: biochemical
Procedure: The activated partial thromboplastin time (aPTT) and prothrombin time (PT) assays were performed on a model ST4 mechanical coagulometer (Diagnostica Stago, Parsippany, N.J.) as previously described (Bompiani et al, J Thromb Haemost 10:870-80 (2012)). For the aPTT, 50 μL of normal human platelet poor plasma (PPP) was incubated with 50 μL TriniClot aPTT S (Trinity BioTech, Bray, Co Wicklow, Ireland) at 37° C. for 5 min. Aptamer(s) (5 μL) was added, and the mixture was incubated at 37° C. for another 5 min, and CaCl2 (50 μL) was added to initiate the assay. For the PT, 50 μL of normal human PPP was incubated with 5 μL of aptamer(s) at 37° C. for 5 min. TriniClot PT Excel reagent (Trinity BioTech, Bray, Co Wicklow, Ireland) (100 μL) was added to initiate the reaction. Assays with a combination of two aptamers contain an equimolar concentration of each individual aptamer, and the data shown are the total RNA concentration.
To compare the anticoagulant effect of these four aptamers, dose-response titrations were performed in several clinical plasma-based clotting assays. The activated partial thromboplastin time (aPTT) and prothrombin time (PT) are plasma clotting assays that are clinically used to probe for abnormalities in the intrinsic and extrinsic coagulation pathways, respectively (Van Cott et al, editors. Jacobs & DeMott laboratory test handbook. 5th ed. Hudson Ohio: Lexi-Comp. p. 327-58 (2001)). These relatively simple assays measure the time until clot formation in platelet poor plasma (PPP) in response to either robust tissue factor (TF), or contact stimulation via negatively charged surfaces (i.e., silica, kaolin, celite). […] At high concentrations, the prothrombin aptamer (R9D-14T) was the most robust anticoagulant and inhibited greater than 96% of prothrombin activity in the aPTT and PT. At 4 μM, R9D-14T increased the aPTT clotting time approximately 18-fold and the PT clotting time greater than 80-fold (exceeded the assay limit of 999 sec). […] At the same dose, the FIXa aptamer (9.3T) inhibited greater than 99% of FIX activity and increased the aPTT clotting time approximately 5.5-fold, while the FVIIa aptamer (7S-1) increased the PT clotting time 3-fold and inhibited greater than 99% of FVII activity (FIGS. 20A and 20B).

[10] = tested on: clot formation in whole human blood; assay: TEG of dogbone aptamer in whole human blood; format: cell-based
Procedure: Activity of dogbone 4 was tested using thromboelastography (TEG), an assay using whole human blood.

[11] = concentration ten-fold higher than recommended for CPB

In the case of CC1CNc2c(cccc2S(=O)(=O)N[C@@H](CCCNC(=N)N)C(=O)N2CC[C@@H](C)C[C@@H]2C(=O)O)C1 (some centres unmarked) [argatroban], the “clot propagation and strength (in words)” value [1, 11] is given as “did not significantly reduce clot propagation and strength”.

In the case of FPRPGGGGNGDFEEIPEEYL [bivalirudin], the in vivo half-life [2] is given as “about 30 minutes”, the Kd [3] is given as about 1.9 nM and the “clot propagation and strength (in words)” value [1, 11] is given as “did not significantly reduce clot propagation and strength”.

In the case of lepirudin, the “time the drug can remain in the circulation” value [4] is given as over 120 h and the “clot propagation and strength (in words)” value ([1]; 10 micrograms/mL, approximately 1.4 micromolar) is given as “significantly reduce clot propagation and strength”.

With protamine the “time to stable clot formation after antidote” value [5] was at most 15 min.

B1: 7S-1: FVIIa aptamer, 2'-fluoropyrimidine modified RNA, SEQ ID NO: 5 (nucleic acid)
chain: rGrGrGrArGrGrAfCrGrAfUrGfCrGrGrAfCfUfCfCfUfCfCrArArGfCrGrAfCfCrArAfCrAfUfCrGrGfUfCfCfCrGfUfUfUfCrArGrAfUfCrArAfCrArGrAfCrGrAfCfUfCrGfCfUrGrArGrGrAfUfCfCrGrArGrA
In the case of B1, the Angle ([6]; RNA 0.12 μM) is reported as 65.2 ± 5.2 deg, the Lag-time ([6]; RNA 0.12 μM) is reported as 4.5 ± 0.6 min and the “Max. Amplitude” value ([6]; RNA 0.12 μM) is reported as 63.0 ± 3.7 mm. For the same molecule, the Angle ([6]; RNA 0.25 μM) was 62.4 ± 3.7 deg, the Lag-time ([6]; RNA 0.25 μM) was 5.1 ± 1.2 min and the “Max. Amplitude” value ([6]; RNA 0.25 μM) was 64.0 ± 2.8 mm. The Angle ([6]; RNA 0.50 μM) was 61.9 deg and 61.9 ± 3.3 deg, the Lag-time ([6]; RNA 0.50 μM) was 6.6 min and 6.6 ± 0.8 min and the “Max. Amplitude” value ([6]; RNA 0.50 μM) was 63.1 mm and 63.1 ± 2.0 mm. For the same molecule, the “clot formation (in words)” value [7] was “none of those aptamers prevented clot formation”, the ETP ([8]; RNA 1.25 nM) was 1657.33 ± 42.72 nM·min and the Lag-time ([8]; RNA 1.25 nM) was 1.67 ± 0.19 min. It also gave a Peak ([8]; RNA 1.25 nM) of 314.56 ± 14.17 nM, a TTP ([8]; RNA 1.25 nM) of 4.28 ± 0.20 min and an ETP ([8]; RNA 2.5 nM) of 1603.50 ± 28.00 nM·min. For the same molecule, the Lag-time ([8]; RNA 2.5 nM) was 2.00 ± 0.17 min, the Peak ([8]; RNA 2.5 nM) was 274.39 ± 29.71 nM and the TTP ([8]; RNA 2.5 nM) was 5.29 ± 0.55 min. For the same molecule, the ETP ([8]; RNA 5 nM) was 1656.20 ± 96.89 nM·min, the Lag-time ([8]; RNA 5 nM) was 3.17 ± 0.19 min and the Peak ([8]; RNA 5 nM) was 238.68 ± 31.03 nM. The TTP ([8]; RNA 5 nM) was 7.34 ± 0.55 min, the ETP ([8]; RNA 10 nM) was 1339.50 ± 21.15 nM·min and the Lag-time ([8]; RNA 10 nM) was 4.51 ± 0.42 min. For the same molecule, the Peak ([8]; RNA 10 nM) was 130.54 ± 14.06 nM, the TTP ([8]; RNA 10 nM) was 11.01 ± 0.79 min and the ETP ([8]; RNA 30 nM) was 1523.50 ± 160.63 nM·min. It also gave a Lag-time ([8]; RNA 30 nM) of 6.01 ± 0.44 min, a Peak ([8]; RNA 30 nM) of 199.25 ± 41.13 nM and a TTP ([8]; RNA 30 nM) of 10.80 ± 1.03 min. The “increase of PT clotting time” value ([9]; 4 μM aptamer) was 3 fold and the FVII activity inhibited ([9]; PT, 4 μM) was “greater than 99%”.

B2: FX/FII dogbone 4: FX/FII dogbone aptamer of reduced size, SEQ ID NO: 22 (nucleic acid)
chain: GUCGAUCACACAGUUCAAACGUAAUAAGCCAAUGUACGAGGCAGACGACAAAGCCCCAGCGAGAUAAUACUUGGCCCCGCU
modifications: listed as RNA, chemistry not given here
For B2, the “activity compared to the free combination of aptamers (in words)” value [10] was “comparable or better activity than the free combination of aptamers” and the “activity compared to the free combination of aptamers (in words)” value ([10]; listed as Dogbone Aptamer 4) was “inhibits clot formation as well as the combination of individual Factor II (R9D-14T) and X (11f7T) aptamers”.

Source: patent publication US9687529B2, “Method of controlling coagulation” (Duke University, priority 2011, dated 2017)
